Laboratory results reported in article PMC10692916, “Protein arginine N-methyltransferase 2 plays a noncatalytic role in the histone methylation activity of PRMT1” (The Journal of Biological Chemistry, 2023).

Legend:
[1] = target: Protein arginine N-methyltransferase 1 (PRMT1) (human) (UniProt Q99873)
[2] = target: the molecule itself; test: native gel or EMSA; mCer-PRMT1 and mCit-PRMT2, 1 uM each, alone or mixed, 1 h at 37 °C in methylation buffer without SAH or H3 peptide; 4-20% native PAGE, fluorescence imaging
[3] = target: T1, Protein arginine N-methyltransferase 2 (PRMT2), full-length, wild type (human, UniProt P55345-1 1-433); test: differential scanning fluorimetry; 5 uM PRMT2, PRMT2ΔSH3 or PRMT2H112Q with 0-500 uM peptide, 7.5x SYPRO Orange, 50 mM Hepes pH 8.0, 10 mM NaCl, 1.0 mM DTT; 30 min at room temperature, heated 25-80 °C; KD from Tm against ligand concentration, single site model; conditions: both partners purified
T1 construct: PRMT2, human, UniProt P55345-1 as printed; cloned in pET28a(+); also called WT PRMT2; native PRMT2; source: E. coli Arctic Express (DE3), purified (Ni-NTA, Superdex 200 SEC)
T1 sequence (looked up): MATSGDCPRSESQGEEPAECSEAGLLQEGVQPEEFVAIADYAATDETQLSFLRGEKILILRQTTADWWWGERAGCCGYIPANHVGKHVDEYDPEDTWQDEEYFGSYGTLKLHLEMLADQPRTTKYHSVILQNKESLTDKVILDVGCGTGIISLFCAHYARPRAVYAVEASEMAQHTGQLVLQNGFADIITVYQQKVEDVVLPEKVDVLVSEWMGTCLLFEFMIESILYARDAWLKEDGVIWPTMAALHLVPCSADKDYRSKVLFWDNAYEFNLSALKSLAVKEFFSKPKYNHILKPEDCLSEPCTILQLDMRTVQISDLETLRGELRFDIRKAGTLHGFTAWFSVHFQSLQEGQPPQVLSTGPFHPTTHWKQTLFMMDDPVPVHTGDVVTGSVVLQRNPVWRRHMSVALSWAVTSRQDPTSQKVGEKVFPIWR

Chain of Protein arginine N-methyltransferase 1 (PRMT1) (human) (Q99873 other isoform, or with tags, fused parts or gaps): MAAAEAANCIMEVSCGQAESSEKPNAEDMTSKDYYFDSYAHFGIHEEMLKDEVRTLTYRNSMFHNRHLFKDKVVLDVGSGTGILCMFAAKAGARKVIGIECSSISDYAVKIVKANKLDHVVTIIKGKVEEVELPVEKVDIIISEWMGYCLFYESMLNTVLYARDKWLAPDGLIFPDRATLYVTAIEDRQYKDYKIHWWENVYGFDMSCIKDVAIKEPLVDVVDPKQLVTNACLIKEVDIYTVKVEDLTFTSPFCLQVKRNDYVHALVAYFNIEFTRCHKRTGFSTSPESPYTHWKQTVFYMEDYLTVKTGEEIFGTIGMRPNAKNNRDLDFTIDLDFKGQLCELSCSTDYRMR

B1: Protein arginine N-methyltransferase 2 (PRMT2), full-length, wild type (enzyme)
chain: T1 sequence (looked up)
methylation signal of histone H2A at 50 ug/ml calf thymus histones, PRMT1 100 nM with 10-fold excess of PRMT2, densitometry of phosphor images [1]: 3 fold

B2: mCit-PRMT2 (mCitrine fusion of PRMT2) (enzyme, human, UniProt P55345-1 1-433, looked up)
chain: T1 sequence (looked up)
notes: PRMT2, human, UniProt P55345-1 printed for PRMT2 in the same sentence; cloned in pET28a(+); also called mCitrine-PRMT2; source: E. coli Arctic Express (DE3), purified (Ni-NTA, Superdex 200 SEC)
binding result [2]: binds

B3: Histone H4 peptide (Ac-SGRGKGGKGLGKGGAKR) (peptide)
peptide: SGRGKGGKGLGKGGAKR
modifications: N-terminal acetylation
notes: N-terminal tail of histone H4; source: synthetic peptide, bought: Canada Peptide
ΔTm at 500 μM peptide [3]: 5.87 °C
